Source: PMC12824264, “Endoglin as a BMP9 Co-Receptor in Vascular Endothelial Cells: Prodomain Displacement and TGFBRII Recruitment” (Nature communications, 2025)

B1: monomeric soluble endoglin (full-length ENG extracellular domain), sENG(M) (domain or fragment, human, UniProt P17813 26-586, looked up)
chain: ETVHCDLQPVGPERGEVTYTTSQVSKGCVAQAPNAILEVHVLFLEFPTGPSQLELTLQASKQNGTWPREVLLVLSVNSSVFLHLQALGIPLHLAYNSSLVTFQEPPGVNTTELPSFPKTQILEWAAERGPITSAAELNDPQSILLRLGQAQGSLSFCMLEASQDMGRTLEWRPRTPALVRGCHLEGVAGHKEAHILRVLPGHSAGPRTVTVKVELSCAPGDLDAVLILQGPPYVSWLIDANHNMQIWTTGEYSFKIFPEKNIRGFKLPDTPQGLLGEARMLNASIVASFVELPLASIVSLHASSCGGRLQTSPAPIQTTPPKDTCSPELLMSLIQTKCADDAMTLVLKKELVAHLKCTITGLTFWDPSCEAEDRGDKFVLRSAYSSCGMQVSASMISNEAVVNILSSSSPQRKKVHCLNMDSLSFQLGLYLSPHFLQASNTIEPGQQSFVQVRVSPSVSEFLLQLDSCHLDLGPEGGTVELIQGRAAKGNCVSLLSPSPEGDPRFSFLLHFYTVPIPKTGTLSCTVALRPKTGSQDQEVHRTVFMRLNIISPDLSGCTSKG
notes: signal peptide in the construct; Expressed as a mixture of dimer and monomer; also called monomeric sENG; sENG-His; source: HEK EBNA, transfected (pCEP4), purified from conditioned medium (HisTrap excel, HiTrap Q HP, Superdex 200)
B2: dimeric soluble endoglin (full-length ENG extracellular domain), sENG(D) (domain or fragment, human, UniProt P17813 26-586, looked up)
chain: B1 chain
notes: signal peptide in the construct; Same construct as m1; It stays a dimer on non-reducing SDS-PAGE; also called dimeric sENG; sENG-His; source: HEK EBNA, transfected (pCEP4), purified from conditioned medium (HisTrap excel, HiTrap Q HP, Superdex 200)
B3: BMP9 growth factor domain (GFD) dimer (ligand, human, UniProt Q9UK05 320-429, looked up)
chain: SAGAGSHCQKTSLRVNFEDIGWDSWIIAPKEYEAYECKGGCFFPLADDVTPTKHAIVQTLVHLKFPTKVGKACCVPTKLSPISVLYKDDMGVPTLKYHYEGMSVAECGCR
notes: growth factor domain (GFD) of BMP9, the cut product of the proprotein; also called BMP9 GFD; source: bought: R&D Systems (BMP9 GFD); in the prodomain displacement assays released from pro:BMP9 made in HEK EBNA, purified
B4: BMP10 growth factor domain (GFD) dimer (ligand, human, UniProt O95393 317-424, looked up)
chain: NAKGNYCKRTPLYIDFKEIGWDSWIIAPPGYEAYECRGVCNYPLAEHLTPTKHAIIQALVHLKNSQKASKACCVPTKLEPISILYLDKGVVTYKFKYEGMAVSECGCR
notes: growth factor domain (GFD) of BMP10, the cut product of the proprotein; One molecule is used for the bought GFD and for the GFD freed from pro:BMP10; also called BMP10 GFD; source: bought: R&D Systems (BMP10 GFD); in the prodomain displacement assays released from pro:BMP10 made in HEK EBNA (FURIN co-transfected), purified

Assays:
Settings in all cases: both partners purified
[1] = target: B3; test: SEC; S200 10/300 gel filtration; sENG(M) at 6x or sENG(D) at 3x molar excess premixed with pro:BMP9 or pro:BMP10 for 30 min; fractions on non-reducing SDS-PAGE
[2] = target: B4; test: as above
[3] = target: B3; test: cross-linking; sENG(M) or sENG(D) with BMP9 or BMP10; crosslinker in PBS pH 7.4-8.0, 45 min at room temperature, quenched with 40 mM Tris; non-reducing SDS-PAGE
[4] = target: B4; test: as above
[5] = target: B2; test: SEC; S200 10/300 gel filtration; sENG(M) at 6x or sENG(D) at 3x molar excess premixed with pro:BMP9 or pro:BMP10 for 30 min; fractions on non-reducing SDS-PAGE
[6] = target: B1; test: native gel or EMSA; pro:BMP9 or pro:BMP10 pre-mixed with sENG(D), sENG(M), BMPRII ECD or ActRIIB ECD at stated molar ratios (from 0.3:1) in TBS, 8 ul, 30 min at room temperature; 10% native PAGE at 4 C; bands cut out and re-run on non-reducing SDS-PAGE
[7] = target: B2; test: SEC; analytical gel filtration; pro:BMP9 or pro:BMP10 pre-mixed with 0.3-fold sENG(M) or sENG(D)
[8] = target: B1; test: as above

Binder: B1
stoichiometry N [1]: 1 sENG(M) per GFD dimer
stoichiometry N [2]: 1 sENG(M) per GFD dimer

Binder: B2
stoichiometry N [3]: 1 sENG(D) per GFD dimer
stoichiometry N [4]: 1 sENG(D) per GFD dimer

Binder: B3
binding result [5]: binds
binding result [6]: binds

Binder: B4
binding result [7]: binds
binding result [8]: binds
